Source: PMC10873556, “G-quadruplex DNA structure is a positive regulator of MYC transcription”

B1: MYC MUT ss (ssDNA)
DNA: TTTTTTAAGAGCGTTAAGAGCGTGAACAAGG
B2: MYC G4 ss (structured_DNA)
DNA: TTTTTGGGGAGGGTGGGGAGGGTGGGGAAGG

Key:
SP1 [1] = target: T1, SP1 (human, UniProt P08047 1-785); experiment: BLI; 100 nM SP1; negligible binding; BLI: 25 mM HEPES pH 7.5, 100 mM KCl, 12.5 mM MgCl2, 20% glycerol, 0.1% Igepal CA-630, 0.01 mM Zn(OAc)2, 1 mM DTT, 3% BSA, temperature not stated; pull-down: oligos annealed in 10 mM Tris-HCl pH 7.4 with (G4) or without (ds) 100 mM KCl; details: protein: recombinant
SP1 [2] = target: T1, SP1; experiment: BLI; 100 mM KCl, 12.5 mM MgCl2, 0.01 mM Zn(OAc)2; apparent, most abundant population, 2:1 heterogeneous ligand fit; BLI: 25 mM HEPES pH 7.5, 100 mM KCl, 12.5 mM MgCl2, 20% glycerol, 0.1% Igepal CA-630, 0.01 mM Zn(OAc)2, 1 mM DTT, 3% BSA, temperature not stated; pull-down: oligos annealed in 10 mM Tris-HCl pH 7.4 with (G4) or without (ds) 100 mM KCl; details: protein: recombinant; intramolecular G4

T1 sequence (P08047 whole entry): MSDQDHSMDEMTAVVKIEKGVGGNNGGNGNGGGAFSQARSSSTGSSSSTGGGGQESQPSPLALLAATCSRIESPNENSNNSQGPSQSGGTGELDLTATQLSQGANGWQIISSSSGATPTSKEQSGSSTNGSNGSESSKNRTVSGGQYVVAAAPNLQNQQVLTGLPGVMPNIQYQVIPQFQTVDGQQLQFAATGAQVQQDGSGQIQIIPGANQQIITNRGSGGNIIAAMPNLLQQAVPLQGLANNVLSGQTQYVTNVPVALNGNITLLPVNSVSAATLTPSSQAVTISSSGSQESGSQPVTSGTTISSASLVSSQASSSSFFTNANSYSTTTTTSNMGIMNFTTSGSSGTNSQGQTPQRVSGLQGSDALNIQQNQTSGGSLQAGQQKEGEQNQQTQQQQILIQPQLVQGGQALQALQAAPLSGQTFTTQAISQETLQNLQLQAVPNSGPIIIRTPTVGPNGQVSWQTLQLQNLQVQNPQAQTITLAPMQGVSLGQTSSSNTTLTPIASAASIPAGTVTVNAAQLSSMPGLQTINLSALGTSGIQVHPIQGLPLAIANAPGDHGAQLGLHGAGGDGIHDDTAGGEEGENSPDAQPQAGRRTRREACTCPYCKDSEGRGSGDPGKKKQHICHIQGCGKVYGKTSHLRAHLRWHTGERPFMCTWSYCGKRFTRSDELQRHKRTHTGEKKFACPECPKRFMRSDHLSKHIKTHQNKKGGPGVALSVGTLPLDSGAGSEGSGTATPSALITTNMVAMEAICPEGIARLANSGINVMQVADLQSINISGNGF

Binder | binding result (SP1 [1]) | Kd (SP1 [2]) [nM]
B1 | no binding | –
B2 | – | 5.6
